Measured values published in patent US20190194291A1 (Hoffmann-La Roche, published 2019).
Positions count from the first letter of the chain named.

T1: human CEA expressed on MKN45 cells (human, UniProt P06731 35-685)
T1 construct: also called CEA-expressing human gastric adenocarcinoma cells (MKN45)
T1 sequence: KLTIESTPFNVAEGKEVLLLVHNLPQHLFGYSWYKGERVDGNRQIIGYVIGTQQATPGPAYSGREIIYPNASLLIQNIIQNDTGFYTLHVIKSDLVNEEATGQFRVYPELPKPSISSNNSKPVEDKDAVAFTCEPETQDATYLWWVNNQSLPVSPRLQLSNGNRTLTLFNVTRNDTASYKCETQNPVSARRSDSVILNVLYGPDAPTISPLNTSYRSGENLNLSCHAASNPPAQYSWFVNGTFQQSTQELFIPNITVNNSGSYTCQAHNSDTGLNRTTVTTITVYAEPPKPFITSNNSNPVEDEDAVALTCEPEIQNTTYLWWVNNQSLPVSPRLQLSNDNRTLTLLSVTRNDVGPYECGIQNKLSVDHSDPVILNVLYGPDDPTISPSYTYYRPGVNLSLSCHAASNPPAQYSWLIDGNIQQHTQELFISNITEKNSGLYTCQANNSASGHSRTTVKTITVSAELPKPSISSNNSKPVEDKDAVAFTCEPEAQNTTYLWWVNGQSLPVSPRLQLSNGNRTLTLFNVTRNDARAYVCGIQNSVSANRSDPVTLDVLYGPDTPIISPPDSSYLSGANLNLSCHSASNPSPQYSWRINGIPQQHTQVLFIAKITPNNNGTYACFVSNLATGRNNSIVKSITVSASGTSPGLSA

T2: cyCD19 ECD (cynomolgus, UniProt A0A2K5W8L9 20-292)
T2 construct: extracellular domain; also called cynomolgus CD19 extracellular domain; cynomolgus CD19
T2 sequence: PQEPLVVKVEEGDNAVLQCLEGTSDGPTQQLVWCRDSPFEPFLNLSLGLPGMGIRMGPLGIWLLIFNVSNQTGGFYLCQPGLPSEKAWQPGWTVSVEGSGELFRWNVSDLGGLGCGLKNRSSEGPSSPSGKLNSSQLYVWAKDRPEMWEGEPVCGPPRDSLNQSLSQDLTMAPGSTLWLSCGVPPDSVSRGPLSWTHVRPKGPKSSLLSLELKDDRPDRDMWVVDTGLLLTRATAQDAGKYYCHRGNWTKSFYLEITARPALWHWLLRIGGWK

T3: human CD19 (antigen of Table 9, construct not stated) (human, UniProt P15391 20-291, limits assumed)
T3 sequence: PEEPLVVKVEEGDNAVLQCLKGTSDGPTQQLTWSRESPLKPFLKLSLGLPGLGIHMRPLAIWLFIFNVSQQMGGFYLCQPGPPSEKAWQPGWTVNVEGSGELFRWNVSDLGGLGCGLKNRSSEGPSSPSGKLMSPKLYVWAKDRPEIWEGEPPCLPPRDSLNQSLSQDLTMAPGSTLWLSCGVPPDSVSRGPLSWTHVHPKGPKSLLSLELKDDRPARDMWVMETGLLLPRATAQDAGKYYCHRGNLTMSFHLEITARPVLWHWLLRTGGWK

T4: huCD19 ECD (human, UniProt P15391 20-291)
T4 construct: also called human CD19 extracellular domain
T4 sequence: T3 sequence

B1: Humanized variant 1 of T84.66 IgG (T84.66-LCHA) (antibody, V domains shown)
VH: QVQLVQSGAEVKKPGSSVKVSCKASGFNIKDTYMHWVRQAPGQGLEWMGRIDPANGNSKYVPKFQGRVTITADTSTSTAYMELSSLRSEDTAVYYCAPFGYYVSDYAMAYWGQGTLVTVSS
VL: EIVLTQSPATLSLSPGERATLSCRAGESVDIFGVGFLHWYQQKPGQAPRLLIYRASNRATGIPARFSGSGSGTDFTLTISSLEPEDFAVYYCQQTNEDPYTFGQGTKLEIK
notes: Tested as IgG
B2: wild-type humanized anti-human CD19 antibody 8B8 (antibody, V domains shown)
VH: QVQLVQSGAEVKKPGASVKVSCKASGYTFTDYIMHWVRQAPGQGLEWMGYINPYNDGSKYTEKFNGRVTMTSDTSISTAYMELSRLRSDDTAVYYCARGTYYYGSALFDYWGQGTTVTVSS
VL: DIVMTQTPLSLSVTPGQPASISCKSSQSLENSNGNTYLNWYLQKPGQSPQLLIYRVSKRFSGVPDRFSGSGSGTDFTLKISRVEAEDVGVYYCLQLTHVPYTFGQGTKLEIK
B3: humanized anti-human CD19 antibody clone 8B8-018 (antibody, V domains shown)
VH: B2 VH with N65Q
VL: B2 VL with S32P
B4: parental humanized clone 8B8 (Fab in bacterial supernatant) (Fab, V domains shown)
VH: B2 VH with N65Q
VL: B2 VL
notes: Soluble Fab with Flag tag from a phagemid, tested as bacterial supernatant; also called Parental 8B8; humanized parental clone 8B8
B5: affinity-matured 8B8-derived clone 2B11 (Fab in bacterial supernatant) (Fab, V domains shown)
VH: B2 VH with N65Q, S105P, A106Q
VL: B2 VL with N31T, N33T, N35T, T97L, H98E, V99D
notes: Soluble Fab with Flag tag, tested as bacterial supernatant; also called 8B8-2B11

How the values were obtained:
[1] = biological target: T1, human CEA expressed on MKN45 cells; experiment: flow cytometry on CEA-expressing MKN45 cells, PE anti-human IgG Fc detection
Description: The binding of different humanized variants of T84.66 IgG was tested on CEA-expressing human gastric adenocarcinoma cells (MKN45, DSMZ ACC 409).
Cells were harvested, counted, checked for viability and re-suspended at 2×10⁶ cells/ml in FACS buffer (100 μl PBS 0.1% BSA). […] Binding curves and EC50 values were obtained and calculated using GraphPadPrism5.

cyCD19 ECD = biological target: T2, cyCD19 ECD; experiment: binding to CD19 ECD, method not stated
[2] = biological target: T3, human CD19 (antigen of Table 9, …); experiment: BIAcore (SPR), format not stated
[3] = biological target: T3, human CD19 (antigen of Table 9, …); experiment: listed under the BIAcore KD; taken as half-life of the complex
huCD19 ECD = biological target: T4, huCD19 ECD; experiment: binding to CD19 ECD, method not stated
[4] = biological target: T5, monomeric human CD19 antigen Fc(kih) fusion molecule (human, UniProt P0DOX5 223-449 = IgG part); experiment: SPR (ProteOn XPR36): Fab from bacterial supernatant captured on anti-human Fab antibody, monomeric CD19-Fc 150-6 nM as analyte, 1:1 Langmuir fit
T5 construct: Heterodimeric Fc fusion with a single copy of the CD19 ectodomain; also called human CD19 Fc(kih); Recombinant human CD19
Description: In order to further characterize the ELISA-positive clones, the off-rate was measured by surface plasmon resonance and compared with the parental humanized clone 8B8.
For this experiment, 7000 RU of polyclonal anti-human Fab antibody were immobilized on all 6 channels of a GLM chip by Amine coupling (NaAcetate pH4.5, 25 μl/min, 240 s) (vertical orientation). Each antibody-containing bacterial supernatant was filtered and 2-fold diluted with PBS, and then injected for 360 s at 25 μl/minute to achieve immobilization levels of between 100 and 400 response units (RU) in vertical orientation. […] Regeneration was performed by two pulses of 10 mM glycine pH 1.5 and 50 mM NaOH for 30 s at 90 ul/min (horizontal orientation). Dissociation rate constants (koff) were calculated using a simple one-to-one Langmuir binding model in ProteOn Manager v3.1 software by simultaneously fitting the sensorgrams. […] The variable domains of the corresponding phagemids were sequenced.

Binder	EC50 (cyCD19 ECD)	koff [4]	other results
B1			EC50 [1]: 1.5 µg/mL
B2	0.313 µg/mL		
B3	0.255 µg/mL		Kd [2]: 6 nM; t1/2 [3]: 43.6 min; EC50 (huCD19 ECD): 0.084 µg/mL
B4		0.000301 s⁻¹	
B5		4.37e-06 s⁻¹	
